Source: article PMC9482650, “Quantitative fragmentomics allow affinity mapping of interactomes” (Nature Communications, 2022)

T1: MPP2, Q14168
T1 sequence (Q14168 180-250, limits assumed, looked up): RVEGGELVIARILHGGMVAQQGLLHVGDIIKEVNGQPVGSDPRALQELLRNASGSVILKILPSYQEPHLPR

T2: DVL3, Q92997
T2 sequence (Q92997 244-331, limits assumed, looked up): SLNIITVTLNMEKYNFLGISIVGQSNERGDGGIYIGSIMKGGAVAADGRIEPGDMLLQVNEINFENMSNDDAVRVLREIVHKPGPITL

T3: LNX2_3, Q8N448
T3 sequence (Q8N448 463-564, limits assumed, looked up): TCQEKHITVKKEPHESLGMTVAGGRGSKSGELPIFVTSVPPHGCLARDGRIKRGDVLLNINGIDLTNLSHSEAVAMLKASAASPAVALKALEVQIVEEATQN

T4: DLG3_3, Q92796
T4 sequence (Q92796 374-475, limits assumed, looked up): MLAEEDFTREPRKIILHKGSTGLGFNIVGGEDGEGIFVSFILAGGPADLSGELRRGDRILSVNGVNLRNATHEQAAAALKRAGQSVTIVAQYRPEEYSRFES

T5: LNX2_2, Q8N448
T5 sequence (Q8N448 334-432, limits assumed, looked up): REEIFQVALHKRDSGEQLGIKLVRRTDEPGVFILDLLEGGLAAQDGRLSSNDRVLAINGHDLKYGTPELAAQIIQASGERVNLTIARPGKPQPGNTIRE

T6: TIAM2, Q8IVF5
T6 sequence (Q8IVF5 885-986, limits assumed, looked up): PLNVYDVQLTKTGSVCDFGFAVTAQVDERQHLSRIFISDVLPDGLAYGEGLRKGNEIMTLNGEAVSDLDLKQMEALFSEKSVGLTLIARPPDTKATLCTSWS

T7: RADIL, Q96JH8
T7 sequence (Q96JH8 971-1071, limits assumed, looked up): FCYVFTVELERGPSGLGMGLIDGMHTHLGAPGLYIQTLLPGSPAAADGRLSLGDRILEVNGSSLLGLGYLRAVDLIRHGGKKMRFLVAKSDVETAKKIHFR

T8: GRIP1_4, Q9Y3R0
T8 sequence (Q9Y3R0 467-571, limits assumed, looked up): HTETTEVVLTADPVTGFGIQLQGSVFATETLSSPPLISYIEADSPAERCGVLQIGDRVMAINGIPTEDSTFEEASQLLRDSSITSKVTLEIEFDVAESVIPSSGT

T9: NHERF3_1, Q5T2W1
T9 sequence (Q5T2W1 4-100, limits assumed, looked up): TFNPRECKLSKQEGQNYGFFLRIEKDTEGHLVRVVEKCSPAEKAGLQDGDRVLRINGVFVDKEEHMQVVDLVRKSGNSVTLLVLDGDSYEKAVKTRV

T10: GRIP1_5, Q9Y3R0
T10 sequence (Q9Y3R0 568-668, limits assumed, looked up): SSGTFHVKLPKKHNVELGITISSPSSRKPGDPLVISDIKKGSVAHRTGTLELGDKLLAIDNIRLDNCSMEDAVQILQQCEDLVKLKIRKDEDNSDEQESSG

T11: LIN7B, Q9HAP6
T11 sequence (Q9HAP6 88-185, limits assumed, looked up): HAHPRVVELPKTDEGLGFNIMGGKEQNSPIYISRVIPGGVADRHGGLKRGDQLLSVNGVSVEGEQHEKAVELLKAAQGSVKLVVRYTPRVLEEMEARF

T12: ARHGEF11, O15085
T12 sequence (O15085 42-136, limits assumed, looked up): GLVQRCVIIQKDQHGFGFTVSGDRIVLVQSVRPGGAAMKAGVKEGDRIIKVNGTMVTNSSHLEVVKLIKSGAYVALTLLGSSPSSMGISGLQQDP


Experiments:
Experiment in all cases: holdup assay
Design in all cases: key: below the threshold = too weak to quantify, mostly under pKd 3.1 to 4
Conditions in all cases: plain residues with an end cap or a label only (N-terminal biotin on a linker: ado-ado)
[1] = target: T1, MPP2, Q14168
[2] = target: T2, DVL3, Q92997
[3] = target: IL16_4, Q14005
[4] = target: GRIP2_5, Q9C0E4
[5] = target: FRMPD4, Q14CM0
[6] = target: T3, LNX2_3, Q8N448
[7] = target: Inadl_2, Q8NI35
[8] = target: T4, DLG3_3, Q92796
[9] = target: TJP2_1, Q9UDY2
[10] = target: NOS1, P29475
[11] = target: T5, LNX2_2, Q8N448
[12] = target: T6, TIAM2, Q8IVF5
[13] = target: SNX27, Q96L92
[14] = target: PARD3_3, Q8TEW0
[15] = target: T7, RADIL, Q96JH8
[16] = target: GIPC2, Q8TF65
[17] = target: T8, GRIP1_4, Q9Y3R0
[18] = target: T9, NHERF3_1, Q5T2W1
[19] = target: MAGI2_2, Q86UL8
[20] = target: LAP2, Q96RT1
[21] = target: T10, GRIP1_5, Q9Y3R0
[22] = target: DLG1_2, Q12959
[23] = target: T11, LIN7B, Q9HAP6
[24] = target: MAST2, Q6P0Q8
[25] = target: IL16_3, Q14005
[26] = target: T12, ARHGEF11, O15085

Sequence of Inadl_2, Q8NI35 (Q8NI35 238-335): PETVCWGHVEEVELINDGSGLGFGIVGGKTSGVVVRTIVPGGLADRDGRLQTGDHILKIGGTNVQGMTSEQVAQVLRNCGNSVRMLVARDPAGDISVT
Sequence of IL16_3, Q14005 (Q14005 1107-1207): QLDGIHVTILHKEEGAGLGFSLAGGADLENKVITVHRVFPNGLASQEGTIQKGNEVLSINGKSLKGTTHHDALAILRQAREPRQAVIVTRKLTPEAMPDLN
Sequence of MAGI2_2, Q86UL8 (Q86UL8 410-522): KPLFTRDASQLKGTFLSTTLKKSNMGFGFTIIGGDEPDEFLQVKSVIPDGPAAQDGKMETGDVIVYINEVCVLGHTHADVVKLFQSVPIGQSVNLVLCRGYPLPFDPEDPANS
Sequence of IL16_4, Q14005 (Q14005 1229-1329): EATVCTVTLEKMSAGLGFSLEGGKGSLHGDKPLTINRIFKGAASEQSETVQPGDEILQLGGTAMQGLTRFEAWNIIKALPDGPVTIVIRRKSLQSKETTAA
Sequence of GIPC2, Q8TF65 (Q8TF65 112-203): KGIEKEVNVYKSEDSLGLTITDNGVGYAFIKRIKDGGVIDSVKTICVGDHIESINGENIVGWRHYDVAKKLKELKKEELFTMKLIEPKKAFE
Sequence of FRMPD4, Q14CM0 (Q14CM0 67-160): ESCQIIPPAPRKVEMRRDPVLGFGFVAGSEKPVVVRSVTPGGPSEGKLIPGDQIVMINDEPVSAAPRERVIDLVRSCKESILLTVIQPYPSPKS
Sequence of GRIP2_5, Q9C0E4 (Q9C0E4 544-642): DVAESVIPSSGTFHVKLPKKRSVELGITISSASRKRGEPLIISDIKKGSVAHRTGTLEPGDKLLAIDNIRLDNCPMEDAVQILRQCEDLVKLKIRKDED
Sequence of MAST2, Q6P0Q8 (Q6P0Q8 1099-1202): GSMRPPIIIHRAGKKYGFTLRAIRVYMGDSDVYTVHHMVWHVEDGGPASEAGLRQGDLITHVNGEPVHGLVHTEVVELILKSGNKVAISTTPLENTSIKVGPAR
Sequence of PARD3_3, Q8TEW0 (Q8TEW0 582-685): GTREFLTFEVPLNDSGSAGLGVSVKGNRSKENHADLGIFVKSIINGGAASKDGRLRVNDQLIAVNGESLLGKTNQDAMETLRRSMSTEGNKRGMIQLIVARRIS
Sequence of TJP2_1, Q9UDY2 (Q9UDY2 24-128): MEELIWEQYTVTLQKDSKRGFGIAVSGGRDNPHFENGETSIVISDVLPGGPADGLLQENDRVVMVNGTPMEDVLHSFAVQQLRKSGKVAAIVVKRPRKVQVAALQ
Sequence of DLG1_2, Q12959 (Q12959 314-412): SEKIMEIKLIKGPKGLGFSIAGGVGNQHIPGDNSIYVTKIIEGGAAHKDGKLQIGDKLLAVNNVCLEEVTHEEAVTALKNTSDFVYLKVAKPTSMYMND
Sequence of LAP2, Q96RT1 (Q96RT1 other isoform, or with tags, fused parts or gaps): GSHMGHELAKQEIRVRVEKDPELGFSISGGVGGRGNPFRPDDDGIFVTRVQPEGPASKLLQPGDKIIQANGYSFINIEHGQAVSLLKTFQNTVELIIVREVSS
Sequence of NOS1, P29475 (P29475 9-101): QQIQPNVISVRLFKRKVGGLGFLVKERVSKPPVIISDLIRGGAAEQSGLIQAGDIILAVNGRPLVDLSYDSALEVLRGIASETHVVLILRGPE

Row | Binder | pKd [1] | pKd [2] | pKd [3] | pKd [4] | pKd [5] | pKd [6] | pKd [7] | pKd [8] | pKd [9] | pKd [10] | pKd [11] | pKd [12] | pKd [13] | pKd [14] | pKd [15] | pKd [16] | pKd [17] | pKd [18] | pKd [19] | pKd [20] | further results
1 | SGDGKTSVWI [GJC1, P36383] | below the threshold | 4.23 | below the threshold | below the threshold | below the threshold | below the threshold | below the threshold | below the threshold | 4.82 | 4.1 | 5.42 | 4.21 | 3.56 | 4.62 | 4.13 | below the threshold | below the threshold | 3.75 | below the threshold | 3.81 | pKd [21]: below the threshold; pKd [22]: below the threshold; pKd [23]: 3.74; pKd [24]: below the threshold; pKd [25]: below the threshold; pKd [26]: 3.61
2 | SQPLLVHDDV [KIT, P10721] | below the threshold | below the threshold | below the threshold | below the threshold | below the threshold | below the threshold | below the threshold | below the threshold | below the threshold | below the threshold | below the threshold | below the threshold | below the threshold | below the threshold | below the threshold | below the threshold | below the threshold | below the threshold | below the threshold | 3.56 | pKd [21]: below the threshold; pKd [22]: below the threshold; pKd [23]: below the threshold; pKd [24]: below the threshold; pKd [25]: below the threshold; pKd [26]: below the threshold
3 | DFKHTKSFII [JAM2, P57087] | below the threshold | 3.67 | below the threshold | below the threshold | below the threshold | below the threshold | below the threshold | below the threshold | below the threshold | 3.75 | 4.7 | 4.19 | below the threshold | 4.42 | 4.21 | below the threshold | below the threshold | below the threshold | below the threshold | below the threshold | pKd [21]: below the threshold; pKd [22]: 3.81; pKd [23]: 3.63; pKd [24]: below the threshold; pKd [25]: below the threshold; pKd [26]: below the threshold
4 | EFKQTSSFLV [JAM1, Q9Y624] | below the threshold | below the threshold | below the threshold | below the threshold | 3.76 | below the threshold | 3.56 | below the threshold | below the threshold | 3.97 | 5.22 | 4.14 | below the threshold | 3.75 | 4.62 | below the threshold | below the threshold | 4.16 | 3.72 | below the threshold | pKd [21]: below the threshold; pKd [22]: below the threshold; pKd [23]: 3.88; pKd [24]: below the threshold; pKd [25]: below the threshold; pKd [26]: below the threshold
5 | GNDPDRGTSI [GRID2, O43424] | below the threshold | below the threshold | below the threshold | below the threshold | below the threshold | below the threshold | below the threshold | below the threshold | below the threshold | 3.75 | below the threshold | 4.09 | below the threshold | below the threshold | below the threshold | below the threshold | below the threshold | 3.64 | below the threshold | below the threshold | pKd [21]: below the threshold; pKd [22]: below the threshold; pKd [23]: 3.69; pKd [24]: 4.45; pKd [25]: below the threshold; pKd [26]: below the threshold
